Reference: patent publication US20180037631A1 (Bristol-Myers Squibb, published 2018)
Where a chain is given by its changes, count along the chain named. Names may count otherwise. “And” between values parts separate entries of the source, which are not always exact repeats. Equal values may be shown once. Read-outs that look alike come from different tables or passages of the source.

B1: I1-GS10-E105 pegylated, His-tagged (designed binder)
chain: MGVSDVPRDLEVVAATPTSLLISWSARLKVARYYRITYGETGGNSPVQEFTVPKNVYTATISGLKPGVDYTITVYAVTRFRDYQPISINYRTEIDKGSGSGSGSGSGSGSGSGSGSVSDVPRDLEVVAATPTSLLISWDAPTSRYQYYRITYGETGGNSPVQEFTVPGGLSTATISGLKPGVDYTITVYAVTDYKPHADGPHTYHESPISINYRTEIDKPCQHHHHHH
modifications: 40 kDa branched PEG on the Cys of the C-terminal Cys tail
B2: I1-GSGCGS8-E5 pegylated (designed binder)
chain: MGVSDVPRDLEVVAATPTSLLISWSARLKVARYYRITYGETGGNSPVQEFTVPKNVYTATISGLKPGVDYTITVYAVTRFRDYQPISINYRTEIEKGSGCGSGSGSGSGSGSGSGSVSDVPRDLEVVAATPTSLLISWWAPVDRYQYYRITYGETGGNSPVQEFTVPRDVYTATISGLKPGVDYTITVYAVTDYKPHADGPHTYHESPISINYRTEHHHHHH
modifications: PEG on the Cys of the GSGCGS8 linker
notes: alternative clone of I1-GS10-E5 pegylated; tail of first monomer EIEK (D to E); also called I1-GSGCGS8-E5(3)
B3: I1-GS10-E5(S91C) pegylated (designed binder)
chain: B2 chain with C100S, S210C
modifications: PEG on Cys at position 91 of E5 (position of SEQ ID NO: 1)
notes: also called I1-GS10-E5(S91C)(8)
B4: I1(S62C)-GS10-E5 pegylated (designed binder)
chain: B2 chain with S62C, C100S
modifications: PEG on Cys at position 62 of I1 (position of SEQ ID NO: 1)
notes: also called I1(S62C)-GS10-E5(5)
B5: I1(S91C)-GS10-E5 pegylated (designed binder)
chain: B2 chain with S87C, C100S
modifications: PEG on Cys at position 91 of I1 (position of SEQ ID NO: 1)
notes: also called I1(S91C)-GS10-E5(7)
B6: I1-GS10-E5(S62C) pegylated (designed binder)
chain: B2 chain with C100S, S176C
modifications: PEG on Cys at position 62 of E5 (position of SEQ ID NO: 1)
notes: also called I1-GS10-E5(S62C)(6)
B7: I1-GS10-E5 pegylated without the 6HIS tag (designed binder)
chain: B2 chain with E95D, C100S, H217I, H218D, H219K, H220P, H221C, H222Q
modifications: PEG on the Cys of the C-terminal Cys tail
notes: Whether the D-to-E change in the tail of the first monomer applies to this construct is not clear; also called I1-GS10-E5 pegylated(1)
B8: I1-GS10-E5-GSGC pegylated (designed binder)
chain: MGVSDVPRDLEVVAATPTSLLISWSARLKVARYYRITYGETGGNSPVQEFTVPKNVYTATISGLKPGVDYTITVYAVTRFRDYQPISINYRTEIEKGSGSGSGSGSGSGSGSGSGSVSDVPRDLEVVAATPTSLLISWWAPVDRYQYYRITYGETGGNSPVQEFTVPRDVYTATISGLKPGVDYTITVYAVTDYKPHADGPHTYHESPISINYRTEGSGCHHHHHH
modifications: PEG on the Cys of the GSGC tail of E5
notes: alternative clone of I1-GS10-E5 pegylated; also called I1-GS10-E5-GSGC(4)
B9: I1-GS10-E85 pegylated, His-tagged (designed binder)
chain: MGVSDVPRDLEVVAATPTSLLISWSARLKVARYYRITYGETGGNSPVQEFTVPKNVYTATISGLKPGVDYTITVYAVTRFRDYQPISINYRTEIDKGSGSGSGSGSGSGSGSGSGSVSDVPRDLEVVAATPTSLLISWTQGSTHYQYYRITYGETGGNSPVQEFTVPGMVYTATISGLKPGVDYTITVYAVTDYFDRSTHEYKYRTTPISINYRTEIDKPCQHHHHHH
modifications: 40 kDa branched PEG on the Cys of the C-terminal Cys tail

Assays:
mouse EGFR = mouse EGFR (mouse, UniProt Q01279 25-647, limits assumed); test: SPR Biacore
monkey EGFR = monkey EGFR (monkey); test: SPR Biacore
rat EGFR = rat EGFR (rat, UniProt A0ABK0LZB0 35-1214); test: SPR Biacore
[1] = target: T1, IGF-IR on human tumour cells (H292, MCF-7, RH41) (human, UniProt P08069 31-1367); test: cell-based or functional assay
[2] = target: T2, Recombinant human EGFR-Fc (aa 1-645 of the extracellular domain of human EGFR fused to human Fc) (human, UniProt P00533 25-645); test: SPR Biacore, EGFR645-Fc; against I1-GS10-E5 Pegylated
T2 construct: range 1-645; bought from R&D Systems; also called EGFR645-Fc; EGFR-Fc (HER-1); not shown: human Fc

[3] = target: T2, Recombinant human EGFR-Fc (aa 1-645 of …); test: SPR Biacore, EGFR645-Fc
[4] = target: T3, IGF1R-Fc (extracellular domain of human IGF1R aa 1-932 fused to hinge and constant regions of human IgG1) (human, UniProt P08069 31-932); test: SPR Biacore, IGF1R-Fc
T3 construct: range 1-932; made in house by transient transfection, purified on Protein A; also called IGF-IR-Fc; not shown: hinge and constant regions of human IgG1

[5] = target: T3, IGF1R-Fc (extracellular domain of human …); test: SPR Biacore
[6] = target: T2, Recombinant human EGFR-Fc (aa 1-645 of …); test: SPR Biacore
[7] = target: T4, EGFR on the surface of human tumour cells (A431, H292) (human, UniProt P00533 25-1210); test: cell-based or functional assay
[8] = target: T1, IGF-IR on human tumour cells (H292, …); test: cell-based or functional assay; remark: listed apart in the source
[9] = target: T3, IGF1R-Fc (extracellular domain of human …); test: SPR Biacore, IGF1R-Fc; against I1-GS10-E5 pegylated
[10] = target: T3, IGF1R-Fc (extracellular domain of human …)
[11] = target: T4, EGFR on the surface of human tumour …
[12] = target: T2, Recombinant human EGFR-Fc (aa 1-645 of …)
[13] = target: T4, EGFR on the surface of human tumour …; test: cell-based or functional assay; remark: listed apart in the source

| Binder | ΔKd (fold) [2] | Δka (fold) [2] | Δkd (fold) [2] | Kd [3] | koff [3] | kon [3] | Kd [4] | koff [4] | kon [4] | Kd [5] | Kd [6] | pEGFR IC50 [7] | pERK IC50 [7] | pIGFR IC50 [8] | ΔKd (fold) [9] | Δka (fold) [9] | Δkd (fold) [9] | further results |
| --- | --- | --- | --- | --- | --- | --- | --- | --- | --- | --- | --- | --- | --- | --- | --- | --- | --- | --- |
| B1 | – | – | – | – | – | – | – | – | – | – | – | – | – | – | – | – | – | Kd (mouse EGFR): 2.7 nM; Kd (monkey EGFR): 4.4 nM; Kd (rat EGFR): 2.9 nM; IC50, IGF1-stimulated IGFR phosphorylation, H292 cells, ELISA [1]: 0.5 nM |
| B2 | 0.7 fold | 1 fold | 0.6 fold | 4 nM | 0.000118 s⁻¹ | 29400 M⁻¹ s⁻¹ | 0.29 nM | 0.000245 s⁻¹ | 852000 M⁻¹ s⁻¹ | 0.29 nM | 4 nM | 19.8 nM | 8 nM | 1.4 nM | 0.9 fold | 0.8 fold | 1.1 fold | – |
| B3 | 0.2 fold | 0.4 fold | 0.4 fold | 17.9 nM | 0.000193 s⁻¹ | 10800 M⁻¹ s⁻¹ | 0.28 nM | 0.000281 s⁻¹ | 986000 M⁻¹ s⁻¹ | 0.28 nM | 17.9 nM | 22.6 nM | 29 nM | 2.1 nM | 0.9 fold | 0.9 fold | 0.9 fold | – |
| B4 | 0.3 fold | 0.8 fold | 0.4 fold | 8.7 nM | 0.000199 s⁻¹ | 22800 M⁻¹ s⁻¹ | 0.7 nM | 0.000234 s⁻¹ | 334000 M⁻¹ s⁻¹ | 0.7 nM | 8.7 nM | 21 nM | 10 nM | 1.9 nM | 0.4 fold | 0.3 fold | 1.1 fold | – |
| B5 | 0.2 fold | 0.7 fold | 0.2 fold | 17 nM | 0.000334 s⁻¹ | 19600 M⁻¹ s⁻¹ | 7.16 nM | 0.000589 s⁻¹ | 82200 M⁻¹ s⁻¹ | 7.16 nM | 17 nM | 22.7 nM | 15 nM | 6.2 nM | 0.04 fold | 0.1 fold | 0.4 fold | – |
| B6 | 1.6 fold | 0.6 fold | 2.4 fold | 1.7 nM | 3.04e-05 s⁻¹ | 17800 M⁻¹ s⁻¹ | 0.26 nM | 0.000279 s⁻¹ | 1.07e+06 M⁻¹ s⁻¹ | 0.26 nM | 1.7 nM | 68.4 nM | 30 nM | 2.2 nM | 1 fold | 1 fold | 0.9 fold | – |
| B7 | – | – | – | – | – | – | 0.22 nM and 0.23 nM | 0.000288 s⁻¹ and 0.000276 s⁻¹ | 1.28e+06 M⁻¹ s⁻¹ and 1.22e+06 M⁻¹ s⁻¹ | 0.23 nM | – | 30 nM | 11 nM | 1.2 nM | 1.1 fold | 1.2 fold | 0.9 fold | – |
| B8 | 2 fold | 1.1 fold | 1.6 fold | 1.4 nM | 4.52e-05 s⁻¹ | 33400 M⁻¹ s⁻¹ | 0.25 nM | 0.000265 s⁻¹ | 1.07e+06 M⁻¹ s⁻¹ | 0.25 nM | 1.4 nM | 28.7 nM | 19 nM | 1.2 nM | 1 fold | 1 fold | 1 fold | – |
| B9 | – | – | – | – | – | – | – | – | – | – | – | – | – | – | – | – | – | Kd [10]: 0.43 nM; IC50 [11]: 37.8 nM; Kd (mouse EGFR): 13.9 nM; Kd (monkey EGFR): 7 nM; Kd (rat EGFR): 10.7 nM; Kd [12]: 5.97 nM; IC50, EGF-induced EGFR phosphorylation, A431 cells, In Cell Western [13]: 22 nM; IC50, EGF-induced ERK phosphorylation, A431 cells, In Cell Western [13]: 23 nM; IC50, EGF-stimulated EGFR phosphorylation, H292 cells, ELISA [13]: 8 nM; IC50, IGF1-stimulated IGFR phosphorylation, H292 cells, ELISA [1]: 0.7 nM |
